In the supplement of paper PMC10567573:
± gives the standard deviation.

Experiment: protein stability index of a GFP-peptide fusion (GPS, HEK-293T) (PSI 1-6); higher = more stable
Conditions: c terminus: a fixed tail appended
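Note: 24-mer peptide tiles fused after GFP, lentivirally expressed, FACS-sorted into six equal bins by GFP/DsRed ratio, decoded by Illumina sequencing, PSI is the read-weighted mean bin number.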

| Sequence | protein stability index (treatment: DMSO) | protein stability index (treatment: MLN4924 1 uM, 8 h) |
| --- | --- | --- |
| KTRVDLKELGQSQKEQGLSDNILS [PDZK1] | 4.55 ± 0.1 | 4.88 ± 0.4 |
| LRLEWETQQELRKIREKEEWIKLD [IQUB] | 3.12 ± 0.62 | 3.44 ± 0.63 |
| SRSRSRSRSNSRSRSYSPRRSRGS [SRSF1] | 5.37 ± 0.24 | 5.6 ± 0.2 |
| QVSQVKGAARLALLQGAGLDVERW [FCHSD1] | 2.89 ± 0.32 | 3.16 ± 0.49 |
| LAEYCVKTKAPAPDEGSDLFYDDY [CDC34] | 4.12 ± 0.24 | 4.33 ± 0.41 |
| IAATELEKEESRREAEKQNYLAEH [TNNI2] | 5.3 ± 0.25 | 5.37 ± 0.26 |
| EQQQILIRQLQEQHYQQYMQQLYQ [ACBD3] | 2.2 ± 0.38 | 2.24 ± 0.3 |
| RFDGLPAVLGFPGFSSGRHRWQVD [TRIM15] | 2.62 ± 0.12 | 2.54 ± 0.18 |
| AALLILFAASLLTVFAWLLQYARG [C2CD2L] | 2.74 ± 0.46 | 3.15 ± 0.46 |
| VTQMNHIPMHIDHDRNMDWVSTQL [FADS1] | 3.14 ± 0.45 | 3.02 ± 0.21 |
| TDDPTAGRSNAPITAPTEVEVMDE [CSNK1G3] | 5.67 ± 0.13 | 5.51 ± 0.22 |
| TDGERVAEVAPEERENVAVAKLQE [SDE2] | 5.59 ± 0.34 | 5.49 ± 0.38 |
| EMDKLRASDIMEPNLTYVYPHTRI [CLCN6] | 2.58 ± 0.23 | 2.92 ± 0.31 |
| LVHSAVDVPTIQEKVNEGKYRSYE [ZMYND11] | 4.47 ± 0.3 | 4.32 ± 0.2 |
| SEDMWGDEDFTFGAYQPTVVSSEG [FBF1] | 4.53 ± 0.23 | 4.84 ± 0.23 |
| ISDALIRRVHLTEDQWGKGTLTPR [TRIM9] | 2.92 ± 0.14 | 3.11 ± 0.41 |
| VCVDRVLYLFGGHHSRGNTNKFYM [KLHDC2] | 2.37 ± 1.4 | 2.86 ± 1.1 |
| YNCGEESLQSCMHFQPNSPASDLE [NANOGP8] | 4.51 ± 0.19 | 4.17 ± 0.45 |
| LGTENLHLIFSYSVWVLRDFPEDG [VPS39] | 2.94 ± 0.46 | 2.74 ± 0.7 |
| GRPSMVWLSANPCPHCGDRTFYDP [PRAME] | 2.24 ± 0.26 | 2.33 ± 0.41 |
| LLEDDSDEEEDFFLRGPSGPRFGP [VAMP4] | 3.97 ± 0.28 | 4.04 ± 0.39 |
| AARAGHVCTVQFLISKGANVNRTT [ANKRD17] | 1.83 ± 0.32 | 2.07 ± 0.21 |

| Sequence | protein stability index (treatment: DMSO) | protein stability index (treatment: MLN4924 1 uM, 8 h) |
| --- | --- | --- |
| QFFTKGYQETISDVLNDAIFDEDH [GCH1] | 4.01 ± 0.33 | 3.92 ± 0.07 |
| NYVLEEVDEAAAESPSFLSLRKGA [NCK2] | 4.75 ± 0.2 | 4.83 ± 0.13 |
| NGSVGVKNSMENGRPPDPADWAVM [SAMD13] | 3.99 ± 0.26 | 4.06 ± 0.24 |
| LYYLRASKAAAGKMNLYESFAQAT [INTS3] | 2.59 ± 0.39 | 2.57 ± 0.31 |
| EAEKDGVKVPTTLAEYCIKTKVPS [UBE2R2] | 5.08 ± 0.19 | 5.15 ± 0.2 |
| ESSVPSTVGCSSQHTPDQANSDRA [PLEKHN1] | 5.42 ± 0.2 | 5.61 ± 0.16 |
| GKTYCKRDYVRLFGIKCAKCQVGF [ISL2] | 2.03 ± 0.19 | 2.17 ± 0.23 |
| ERHCHLYTFHARFGEVRPYFYLGG [TRIM35] | 2.61 ± 0.49 | 2.6 ± 0.52 |
| EEYCHKHYDRNKDGNKDVYLSLLR [VPS39] | 3.23 ± 0.35 | 3.19 ± 0.27 |
| LGTAIFIEADRRRAQLHVQGLLHE [SPNS1] | 2.46 ± 0.36 | 2.17 ± 0.31 |
| PWSPCSARFITDFLDNGYGHCLLD [ADAMTS4] | 2.05 ± 0.21 | 2.21 ± 0.41 |
| GFLQALSLAVDKQFEERKKLAAYI [TRIP13] | 3.35 ± 0.22 | 2.54 ± 0.39 |
| QSLKGHLRNNFQKQLLSNKELILD [ZC2HC1C] | 3.08 ± 0.3 | 3.17 ± 0.29 |
| RDNSPFDGPGGNLAHAFQPGPGIG [MMP1] | 4.05 ± 0.39 | 4.03 ± 0.17 |
| ISHRSTVASCMHRQETVDCLKKFN [CAMK2A] | 3.23 ± 0.077 | 3.14 ± 0.11 |
| TIILQQLLPLRTKVAKLLGYSTHA [NLN] | 2.33 ± 0.26 | 1.92 ± 0.39 |
| EICSEPVAASPAPAGERRIYRHRI [ZNF511] | 4.27 ± 0.47 | 4.09 ± 0.26 |
| PTMAPAGQPAPVSMVPPSPAMAAS [SNAP91] | 4.75 ± 0.22 | 4.89 ± 0.28 |
| QQIGDAIRMIVRGTLGSCSSSSEC [PLK2] | 2.1 ± 0.23 | 2.08 ± 0.39 |
| FRADQRSGPRQLLTLYNPTGTALR [MOSPD3] | 3.2 ± 0.22 | 3.39 ± 0.35 |
| HPVFYQGTYSQALNDAKRELRFLL [FAF2] | 2.26 ± 0.36 | 2.15 ± 0.14 |
| HGNQSAGEDQAFGDWLLTANGSEI [SLC22A15] | 4.56 ± 0.34 | 4.67 ± 0.18 |

| Sequence | protein stability index (treatment: DMSO) | protein stability index (treatment: MLN4924 1 uM, 8 h) |
| --- | --- | --- |
| RRGRSPKGEFKDEEETVTTKHIHI [CLINT1] | 4.78 ± 0.14 | 4.73 ± 0.26 |
| LRLYKHNSQALLLHSSILTCTLLL [MFSD9] | 2.74 ± 0.6 | 2.88 ± 0.67 |
| GLNHSLSYDVALHRTRLQDLRVLV [SCARA5] | 2.2 ± 0.34 | 2.13 ± 0.1 |
| VMLTLSDSKHVVLPVDDDSDLNVV [RBBP5] | 3.51 ± 0.14 | 3.49 ± 0.25 |
| GGPPAGPGGVYAGPEPPPVYTNLS [JUNB] | 4.15 ± 0.12 | 4.56 ± 0.099 |
| EADPEMIKRAEDYGPVEVISHWHP [CLPTM1] | 4.42 ± 0.24 | 4.26 ± 0.38 |
| RVAHEPVAPPEDKESESEAKVDGE [CDS2] | 5.47 ± 0.21 | 5.63 ± 0.27 |
| AVCKATTHEVMGPKKKHLDYLIQA [SNAP91] | 3.06 ± 0.29 | 2.96 ± 0.14 |
| PSRGGNQLPRPPIVGGNKGRSGPL [WAS] | 4.6 ± 0.07 | 4.73 ± 0.22 |
| EPQPFVTSDVYSSDAAFGGILERY [MYORG] | 3.79 ± 0.095 | 3.87 ± 0.058 |
| QLLLIKALQEKLWNVAAPLYLKQS [INTS4] | 3.14 ± 0.31 | 2.89 ± 0.18 |
| DLEEERREEEEKTPPETKPDPPVN [PCMTD2] | 5.64 ± 0.37 | 5.48 ± 0.48 |
| VCVEHHTFFRLLLPEAPPKKFLTL [EPB41L3] | – | 2.85 ± 0.42 |
| AKGHVKLSDFGLCTGLKKAHRTEF [STK38L] | 2.75 ± 0.21 | 2.61 ± 0.15 |
| HMVRESKIMEAESQKATRECEKSA [FAN1] | 5.29 ± 0.3 | 5.24 ± 0.14 |
| VKKDHVALQVPRGKEDSTLQLLRE [CBY2] | 4.26 ± 0.069 | 4.37 ± 0.07 |
| KFSYMWTINNFSFCREEMGEVLKS [SPOPL] | 2.34 ± 0.25 | 2.19 ± 0.42 |
| PDLPFQIKPSENHYSLLTSQPLDR [PCDHGC5] | 3.97 ± 0.22 | 4.13 ± 0.14 |
| RTIRHVYCKTSDGRVVPESQCQME [ADAMTSL2] | 4.08 ± 0.16 | 4.09 ± 0.31 |
| EEAISVVMSGKMSVSKAQSIYGIP [LCOR] | 2.69 ± 0.17 | 2.53 ± 0.087 |
| HRRELESSGAGSSPPAAPCPPPPG [ZBED3] | 5.12 ± 0.29 | 5.24 ± 0.16 |
